Series [1] addresses T1, GST-ZBTB24 zinc finger domain (UniProt O43167 294-512). Put plainly: EMSA. Background: Mobility shift assays separate free from complexed probe on a gel.
Series [2] addresses T1, GST-ZBTB24 zinc finger domain. Put plainly: EMSA. The source holds these as a separate data set.
Series [3] shares this target. Put plainly: competition.

Numbering of substitutions follows the chain as printed.

T1 sequence (O43167 294-512): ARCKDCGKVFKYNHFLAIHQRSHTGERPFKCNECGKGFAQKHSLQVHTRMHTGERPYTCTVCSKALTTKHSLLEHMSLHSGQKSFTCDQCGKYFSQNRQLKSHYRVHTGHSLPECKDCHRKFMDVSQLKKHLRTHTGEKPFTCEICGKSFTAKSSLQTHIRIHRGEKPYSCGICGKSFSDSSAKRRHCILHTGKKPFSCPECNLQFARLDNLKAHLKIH

B1: OSTC promoter (dsDNA)
DNA 1: GTTAGAAGTCCCGCAGGTCCTTGAAGGTACACAAATCACC
DNA 2: GGTGATTTGTGTACCTTCAAGGACCTGCGGGACTTCTAAC
For the molecule B1, in series [1], the binding result is on record as “binds”.

B2: GAPDH promoter (dsDNA)
DNA 1: GAGCCTGGCGGGAGGCGGGGTCCGAGTCACCGCCTGCCGC
DNA 2: GCGGCAGGCGGTGACTCGGACCCCGCCTCCCGCCAGGCTC
For the molecule B2, the binding result in series [1] was “no binding”.

B3: CDCA7 promoter (dsDNA)
DNA 1: GGCCGTTACCACAGCTTGCAGGACCTGTGTCCCAACGCGG
DNA 2: CCGCGTTGGGACACAGGTCCTGCAAGCTGTGGTAACGGCC
On to B3, for which, in series [1], the binding result is “binds”.

B4: CAMKMT promoter wt (dsDNA)
DNA 1: GGGAAGAAGTTGGCAGGTCCTGGCAGGGGACGAGCTGCGGC
DNA 2: GCCGCAGCTCGTCCCCTGCCAGGACCTGCCAACTTCTTCCC
In the case of B4, the binding result in series [2] was “binds”.

B5: CAMKMT promoter mut2 (dsDNA)
DNA 1: B4 DNA 1 with G17A, C19A, G27T
DNA 2: B4 DNA 2 with C15A, G23T, C25T
Consider B5, for which the binding result in series [3] is “no binding”.

B6: CAMKMT promoter mut1 (dsDNA)
DNA 1: B4 DNA 1 with C19A
DNA 2: B4 DNA 2 with G23T
For B6, in series [3], the binding result is reported as “no binding”.

B7: CDCA7 outside promoter motif (dsDNA)
DNA 1: GGGTGCTGGACGCAGGCGGGCGCGGGCCGACCCTCTCCAA
DNA 2: TTGGAGAGGGTCGGCCCGCGCCCGCCTGCGTCCAGCACCC
Regarding B7, in series [1], the binding result is recorded as “no binding”.

These data come from PMC6212772.
